In test [1] the target is YFP-D/NP_TAIL, yellow fluorescent protein fused to the nucleoprotein tail of D/bovine/France/2986/20 (influenza D virus D/bovine/France/2986/2012). Briefly: SPR.
Test [2] addresses importin-α7 (Homo sapiens) (UniProt O60684). The following applies: cited from earlier work.
Test [3] concerns the target T1, human importin-α3 without its importin-β binding (IBB) domain (residues 64 to 521) (human, UniProt O00629 64-521).
T1 construct: also called ΔIBB importin-α3; Imp-α3
T1 sequence (looked up): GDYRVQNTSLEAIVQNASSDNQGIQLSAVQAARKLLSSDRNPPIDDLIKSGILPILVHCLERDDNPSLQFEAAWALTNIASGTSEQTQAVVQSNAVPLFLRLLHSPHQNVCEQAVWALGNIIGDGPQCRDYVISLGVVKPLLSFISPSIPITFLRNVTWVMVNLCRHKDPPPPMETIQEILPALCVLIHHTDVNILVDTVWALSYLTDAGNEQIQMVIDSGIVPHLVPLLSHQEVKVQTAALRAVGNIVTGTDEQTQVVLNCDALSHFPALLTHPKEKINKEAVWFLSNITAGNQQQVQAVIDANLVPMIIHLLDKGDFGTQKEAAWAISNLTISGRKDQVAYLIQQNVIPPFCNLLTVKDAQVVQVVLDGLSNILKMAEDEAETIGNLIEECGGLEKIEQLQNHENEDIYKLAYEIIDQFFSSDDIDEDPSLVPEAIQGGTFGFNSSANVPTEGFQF
In words: SPR. The following applies: both partners purified.

Test [4] deals with T2, human importin-α5 without its importin-β binding (IBB) domain (residues 66 to 538) (human, UniProt P52294 66-538).
T2 construct: also called ΔIBB importin-α5; Imp-α5
In words: SPR. The note with it: both partners purified.

Test [5] deals with T3, human importin-α7 without its importin-β binding (IBB) domain (residues 58 to 536) (human, UniProt O60684 58-536).
T3 construct: also called ΔIBB importin-α7; Imp-α7
In words: SPR. The note with it: both partners purified.

Test [6] concerns the target T1, human importin-α3 without its …. Briefly: SPR. The following applies: both partners purified. This is another data set of the same source.
The target of test [7] is T2, human importin-α5 without its …. In words: SPR. The note with it: both partners purified. This is another data set of the same source.
The target in test [8] is T3, human importin-α7 without its …. In words: SPR. The note with it: both partners purified. This is another data set of the same source.

This is an account of results in publication PMC7472415 (Viruses, 2020).

T3 sequence (O60684 58-536): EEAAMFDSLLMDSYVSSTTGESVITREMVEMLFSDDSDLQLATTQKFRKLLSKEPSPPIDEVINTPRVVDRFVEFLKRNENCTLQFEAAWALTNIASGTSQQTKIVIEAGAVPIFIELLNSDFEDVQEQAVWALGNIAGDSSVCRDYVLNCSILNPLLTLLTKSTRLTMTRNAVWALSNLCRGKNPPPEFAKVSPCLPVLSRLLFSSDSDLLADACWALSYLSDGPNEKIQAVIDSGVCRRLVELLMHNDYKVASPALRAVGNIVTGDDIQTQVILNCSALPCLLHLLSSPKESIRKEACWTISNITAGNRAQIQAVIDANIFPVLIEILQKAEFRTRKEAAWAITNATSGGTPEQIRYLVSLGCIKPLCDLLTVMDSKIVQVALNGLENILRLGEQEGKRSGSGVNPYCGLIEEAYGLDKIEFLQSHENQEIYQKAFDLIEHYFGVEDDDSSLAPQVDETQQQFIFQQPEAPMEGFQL
T2 sequence (P52294 66-538): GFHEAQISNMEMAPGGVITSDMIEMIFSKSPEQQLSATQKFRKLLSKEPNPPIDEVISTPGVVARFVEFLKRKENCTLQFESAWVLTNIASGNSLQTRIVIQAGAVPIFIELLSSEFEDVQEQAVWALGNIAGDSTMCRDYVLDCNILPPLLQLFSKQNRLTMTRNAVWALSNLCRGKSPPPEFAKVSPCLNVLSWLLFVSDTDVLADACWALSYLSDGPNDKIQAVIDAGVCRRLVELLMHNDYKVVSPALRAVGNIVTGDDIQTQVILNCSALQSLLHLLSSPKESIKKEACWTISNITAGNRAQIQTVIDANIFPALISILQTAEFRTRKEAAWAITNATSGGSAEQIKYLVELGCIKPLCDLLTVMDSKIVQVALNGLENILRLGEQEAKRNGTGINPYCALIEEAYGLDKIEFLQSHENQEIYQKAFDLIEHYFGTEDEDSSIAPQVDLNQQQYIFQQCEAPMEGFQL

Broadly, the Kd is the free concentration of one partner at which half of the binding sites on the other are occupied at equilibrium, for simple one-to-one binding. As a reminder, the koff is the first-order rate constant of dissociation. Higher therefore signals fast dissociation. By kon is commonly meant the rate constant with which the complex forms. Low values mean slower complex formation, high ones faster complex formation. Turning to “human importin-α3 without its importin-β binding (IBB) domain (residues 64 to 521) (from UniProt O00629 64-521) (domain or fragment)”, in test [1], the Kd was 22 nM, the koff stood at 0.007 s⁻¹ and the on-rate constant (kon) amounted to 2.8e+06 M⁻¹ s⁻¹.
The corresponding values for “human importin-α5 without its importin-β binding (IBB) domain (residues 66 to 538) (from UniProt P52294 66-538) (domain or fragment)” are 21 nM, 0.5 s⁻¹ and 1.1e+06 M⁻¹ s⁻¹.
In test [1], “human importin-α7 without its importin-β binding (IBB) domain (residues 58 to 536) (from UniProt O60684 58-536) (domain or fragment)” displayed a Kd of 29 nM, a koff of 0.104 s⁻¹ and a kon of 5e+06 M⁻¹ s⁻¹.
Regarding “influenza B nucleoprotein NPTAIL (30-71) (from UniProt P13885)”, in test [2], the Kd is 844 nM.

B1: B/NP_TAIL-YFP, nucleoprotein tail of B/Memphis/13/03 (residues 1 to 71) fused to yellow fluorescent (domain or fragment)
chain: MSNMDIDGINTGTIDKTPEEITSGTSGTTRPIIRPATLAPPSNKRTRNPSPERATTSSEADVGRKTQKKQT
Consider B1, for which the koff in test [3], in test [4] and in test [5] was over 1 s⁻¹ throughout. Also, the on-rate constant (kon) in test [3], in test [4] and in test [5] was over 1e+07 M⁻¹ s⁻¹ each time. Moreover, the dissociation constant (Kd) in test [6] came to 308 ± 106 nM; in test [7], 770 ± 24 nM; in test [8], 405 ± 5 nM.
